Results: publication PMC8215223

Target: GM130 (UniProt Q08379)
Experiment: co-IP of GM130 with GFP-HOOK3
Settings: reference: wild type

Row | binding against the reference (sites S238) | binding against the reference (sites S707) | Substance
1 | weaker | – | HOOK3 (from UniProt Q86VS8) S238A
2 | – | weaker | HOOK3 (from UniProt Q86VS8) S707A
